These are literature values, as cited in article PMC7689933.

One may read the pKa as the negative logarithm of the acid dissociation constant.

This data set has as its target His15 (UniProt position 33, AAMKRHGLDNY). Put plainly: NMR. Conditions: not stated (presumably native, ligand-free lysozyme).

Regarding “Lysozyme C (hen egg white lysozyme) (Gallus gallus)”, the pKa is reported as 5.35 ± 0.07.
